Data: US20220356221A1 (ASKGENE PHARMA, published 2022)

Target: human IL-12 receptor on HEK-Blue IL-12 reporter cells (human, UniProt P42701 24-662; Q99665 24-862)
Assay: cell-based or functional assay

human IL-12 receptor on HEK-Blue IL-12 reporter cells, sequence (Q99665 24-862, chain 2 of 2, other chains not shown): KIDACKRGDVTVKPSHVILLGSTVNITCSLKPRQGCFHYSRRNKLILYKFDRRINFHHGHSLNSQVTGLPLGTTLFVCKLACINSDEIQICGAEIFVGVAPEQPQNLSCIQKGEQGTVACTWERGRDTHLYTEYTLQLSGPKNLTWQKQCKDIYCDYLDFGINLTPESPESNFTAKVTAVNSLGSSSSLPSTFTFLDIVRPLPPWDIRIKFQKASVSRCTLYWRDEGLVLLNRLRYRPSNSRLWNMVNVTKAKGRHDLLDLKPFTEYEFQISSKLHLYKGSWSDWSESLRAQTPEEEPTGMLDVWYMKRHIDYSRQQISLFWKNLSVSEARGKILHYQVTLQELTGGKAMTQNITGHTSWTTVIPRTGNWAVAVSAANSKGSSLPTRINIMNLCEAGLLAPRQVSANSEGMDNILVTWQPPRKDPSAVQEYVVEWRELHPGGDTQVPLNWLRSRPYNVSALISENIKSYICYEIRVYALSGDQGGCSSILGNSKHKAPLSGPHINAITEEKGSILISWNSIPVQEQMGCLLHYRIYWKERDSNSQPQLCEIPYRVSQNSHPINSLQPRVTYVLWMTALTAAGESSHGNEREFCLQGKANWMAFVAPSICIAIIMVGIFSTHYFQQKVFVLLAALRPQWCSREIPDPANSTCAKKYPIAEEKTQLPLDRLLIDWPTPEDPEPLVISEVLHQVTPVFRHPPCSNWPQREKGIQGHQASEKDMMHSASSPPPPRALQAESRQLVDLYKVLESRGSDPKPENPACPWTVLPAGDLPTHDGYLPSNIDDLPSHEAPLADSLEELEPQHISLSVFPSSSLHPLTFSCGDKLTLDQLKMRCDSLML

B1: IL-12 prodrug JR3.105.5 after protease treatment (activated) (Fc fusion)
chain: DKTHTCPPCPAPELLGGPSVFLFPPKPKDTLMISRTPEVTCVVVDVSHEDPEVKFNWYVDGVEVHNAKTKPREEQYASTYRVVSVLTVLHQDWLNGKEYKCKVSNKALPAPIEKTISKAKGQPREPQVYTLPPCRDELTKNQVSLWCLVKGFYPSDIAVEWESNGQPENNYKTTPPVLDSDGSFFLYSKLTVDKSRWQQGNVFSCSVMHEALHNHYTQKSLSLSPGAGGGGSGGGGSGGGGSIWELKKDVYVVELDWYPDAPGEMVVLTCDTPEEDGITWTLDQSSEVLGSGKTLTIQVKEFGDAGQYTCHKGGEVLSHSLLLLHKKEDGIWSTDILKDQKEPKNKTFLRCEAKNYSGRFTCWWLTTISTDLTFSVKSSRGSSDPQGVTCGAATLSAERVRGDNKEYEYSVECQEDSACPAAEESLPIEVMVDAVHKLKYENYTSSFFIRDIIKPDPPKNLQLKPLKNSRQVEVSWEYPDTWSTPHSYFSLTFCVQVQGKSKREKKDRVFTDKTSATVICRKNASISVRAQDRYYSSSWSEWASVPCSGGGGSGGGGSGGGGSRNLPVATPDPGMFPCLHHSQNLLRAVSNMLQKARQTLEFYPCTSEEIDHEDITKDKTSTVEACLPLELTKNESCLNSRETSFITNGSCLASRKTSFMMALCLSSIYEDLKMYQVEFKTMNAKLLMDPKRQIFLDQNMLAVIDELMQALNFNSETVPQKSSLEEPDFYKTKIKLCILLHAFRIRAVTIDRVMSYLNAS
  EC50 in the cell-based IL-12 reporter assay (HEK-Blue IL-12, STAT4-inducible SEAP, OD630): ~0.05 nM
  fold activation based on the EC50 values (after protease treatment against prior to it): ~18 fold
